T1: murine MHC class I molecule, H-2Kd (mouse, UniProt P01887 21-119; P01902 22-368, limits assumed)
T1 construct: whole, on cells; MHC class I molecule on the surface of RMAS-Kd cells
T1 sequence (MHC heavy, looked up): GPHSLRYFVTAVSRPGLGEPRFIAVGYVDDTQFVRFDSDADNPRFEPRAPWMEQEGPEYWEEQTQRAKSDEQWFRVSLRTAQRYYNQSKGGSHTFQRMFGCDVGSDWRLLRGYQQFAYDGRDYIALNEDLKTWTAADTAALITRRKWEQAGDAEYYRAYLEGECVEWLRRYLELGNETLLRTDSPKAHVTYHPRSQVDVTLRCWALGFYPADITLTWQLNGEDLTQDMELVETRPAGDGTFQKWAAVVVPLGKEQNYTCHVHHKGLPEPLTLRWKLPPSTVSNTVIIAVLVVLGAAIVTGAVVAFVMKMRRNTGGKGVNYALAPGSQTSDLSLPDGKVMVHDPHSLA
T1 sequence (b2m, looked up): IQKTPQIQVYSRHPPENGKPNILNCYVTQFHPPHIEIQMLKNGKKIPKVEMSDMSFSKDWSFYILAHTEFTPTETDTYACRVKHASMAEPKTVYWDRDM

B1: TV3 (peptide)
peptide: RLLPLLALL
notes: Peptide derived from the mouse insulin protein
B2: TV2 (peptide)
peptide: KYPAVLLIL
notes: Modified version of TV1 with leucine to tyrosine at position 2; also called MTV2
B3: TUM (peptide)
peptide: KYQAVTTTL
notes: also called negative control peptide TUM

Target: T1, murine MHC class I molecule, H-2Kd
Test: MHC class I stabilization assay on TAP-deficient RMAS-Kd cells, anti-H-2Kd-FITC, flow cytometry (background without peptide 6.07%)

Binder | % of RMAS-Kd cells staining positive for surface H-2Kd
B1 | 70.1%
KLPAVLLIL [murine IAPP precursor peptide mTV1] | 64.2%
B2 | 58.5%
B3 | 66.5%

Target: T2, human MHC class I molecule HLA-A*0201 (human)
T2 construct: MHC class I molecule on the surface of T2 cells; also called HLA-A2; HLA-A201
Test: HLA-A2 stabilization on T2 cells loaded with 50 ug/ml peptide, anti-HLA-A2 (BB7.2) flow cytometry, MFI relative to CMV/A2

Binder | relative HLA-A2 surface expression (% of CMV/A2 peptide binding)
GMAELMAGL [Phogrin331] | > 80%
ALWMRLLPL [Insulin2] | > 80%
SLAAGVKLL [IA-2(482)] | > 80%
LLPPLLEHL [IA-2(180)] | > 80%
SLSPLQAEL [IA-2(172)] | > 80%

Target: T2, human MHC class I molecule HLA-A*0201
Test: peptide/HLA-A2 complex stability on T2 cells after peptide removal and emetine, 37 C, anti-HLA-A2 flow cytometry, normalized to CMV/HLA-A2

Binder | % of peptide/HLA-A2 complex dissociated in 4 hours
KLQVFLIVL (also called HTV1; HTV-1) [IAPP5] | < 5%
FLWSVFMLI [IGRP152] | < 5%
GMAELMAGL [Phogrin331] | ~20%
ALWMRLLPL [Insulin2] | ~20%
FLIVLSVAL [IAPP9] | < 5%
RLLCALTSL [IGRP293] | ~20%
FLFAVGFYL [IGRP215] | < 5%
SLSPLQAEL [IA-2(172)] | < 5%
